Data set [1] deals with T1, AF647-p53 (p53-SNAP labeled with AF647) (human, UniProt P04637 1-393). In words: EMSA; complexes at low nM tetramer; EMSA: 25 mM HEPES pH 7.9, 50 mM KCl, 2.5 mM MgCl2, 1 mM EDTA, 10% glycerol, 0.1% NP-40, 1 mM DTT, 0.05 mg/mL BSA, room temp 30 min; TIRF: 25 mM Tris pH 7.9, 50. As to conditions: protein: recombinant; tags: N-terminal His; C-terminal SNAP tag with AlexaFluor647; chain copies: 4; label: 5' 32P on reverse strand; blunt. On the technique in general: A gel shift assay detects complexes by their altered migration in electrophoresis.

In data set [2] the target is T1, AF647-p53 (p53-SNAP labeled with AF647). In words: single-molecule TIRF; apparent upper limit (<=), koff 1.0 s-1, kon(obs) 0.0188 s-1; EMSA: 25 mM HEPES pH 7.9, 50 mM KCl, 2.5 mM MgCl2, 1 mM EDTA, 10% glycerol, 0.1% NP-40, 1 mM DTT, 0.05 mg/mL BSA, room temp 30 min; TIRF: 25 mM Tris pH 7.9, 50. The settings on record: protein: recombinant; tags: N-terminal His; C-terminal SNAP tag with AlexaFluor647; chain copies: 4; label: 5' biotin on forward strand; 5' AF647 on reverse strand; 5' overhang 24 nt and 3' overhang 1 nt on forward strand as printed.

The target is the same in data set [3]. Put plainly: EMSA; sub-nM affinity, assuming tetramer; EMSA: 25 mM HEPES pH 7.9, 50 mM KCl, 2.5 mM MgCl2, 1 mM EDTA, 10% glycerol, 0.1% NP-40, 1 mM DTT, 0.05 mg/mL BSA, room temp 30 min; TIRF: 25 mM Tris pH 7.9, 50. As to conditions: protein: recombinant; tags: N-terminal His; C-terminal SNAP tag with AlexaFluor647; chain copies: 4; label: 5' 32P on reverse strand; blunt.

T1 sequence (P04637 whole entry): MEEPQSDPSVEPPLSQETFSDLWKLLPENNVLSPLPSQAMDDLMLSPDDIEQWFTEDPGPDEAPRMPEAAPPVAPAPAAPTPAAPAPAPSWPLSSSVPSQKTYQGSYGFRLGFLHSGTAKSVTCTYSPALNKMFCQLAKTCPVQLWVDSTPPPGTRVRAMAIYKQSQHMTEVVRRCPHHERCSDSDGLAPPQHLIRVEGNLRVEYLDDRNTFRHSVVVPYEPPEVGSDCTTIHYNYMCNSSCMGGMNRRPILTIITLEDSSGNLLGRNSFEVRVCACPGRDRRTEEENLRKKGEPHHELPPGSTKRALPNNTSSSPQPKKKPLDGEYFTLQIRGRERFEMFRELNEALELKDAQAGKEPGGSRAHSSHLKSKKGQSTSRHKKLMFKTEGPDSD

B1: random DNA (EMSA) (dsDNA)
DNA 1: CGTTCCTAATCGGGTAGGGGCTGACACGAATA
DNA 2: TATTCGTGTCAGCCCCTACCCGATTAGGAACG
Turning to B1, the binding result in data set [1] was “binds”.

B2: mutant half site DNA (single molecule) (dsDNA)
DNA 1: CGCGTTCATGGTAGAGTCGTGGACTAGAGCGAACATGTCTTTCAAAGGCGGCGTCG
DNA 2: GACGCCGCCTTTGAAAGACATGTTCGCTCTA
On to B2, for which the Kd in data set [2] was under 13 nM.

B3: wild type DNA (EMSA) (dsDNA)
DNA 1: TAGAGCGAACATGTCTAAGCATGCTGGCGTCG
DNA 2: CGACGCCAGCATGCTTAGACATGTTCGCTCTA
In the case of B3, the Kd in data set [3] is under 1 nM.
